A protein production outcome set (Wang et al. 2014)

assay: label from the status in PepcDB records

Row | Sequence | protein production
1 | PETVCWGHVEEVELINDGSGLGFGIVGGKTSGVVVRTIVPGGLADRDGRLQTGDHILKIGGTNVQGMTSEQVAQVLRNCGNSVRMLVARDPAGDISVT | not failed
2 | PFKAGKARGLTTEQLNTRLDIDEFETGLMRLAQDSFSTDDYLFQEGQYLDEDTVLSWLARKKTGSDLKKAEKEDKNFKNEGLNPALPSSGSTEEKNESSPIYLASMLEHDYLVRKDKNSIQLGGVMIGLALNSVYYYREKTGDPQKEVEIKDSTLRQQGEKIAQEVINRLRKKDNLKNVPITVALYKQASKTSIVPGNFIAKTEVKAGSTDISNWDDINEKYVFYPADTTTAEKYPDDTEVFKRFKNSIEEYFPNYTGVVGTALYENDEMKKMKIDIPMQFYGKSEVVAFTQFLTGEVMDYYSKSSVDVEVNITSSDGQEAVIIRNAGDKEPTVHIYD | failed
3 | PGVELRTAADFADDPRPLFELDAETSGDEPGDVDHEFTDYEAWLEETWRHPLLSHELTSVALVDGRPAAFSAARTDGATRYHTGMTGTARAFRGRGLAKLAKNDSLHRARAAGFTEAFTGNDAGNEPMLAINKWFGYEICATEVRYVRELG | failed
4 | PIKMGWLKKQRSIVKNWQQRYFVLRAQQLYYYKDEEDTKPQGCMYLPGCTIKEIATNPEEAGKFVFEIIPASWDQNRMGQDSYVLMASSQAEMEEWVKFLRRVAG | not failed
5 | PITFWYGKYIILIPSSYFKSVIDKRLKYIILHEYAHAKNRDTLHLIIFNIFSIIMSYNPLVHIVKRKIIHDNEVEADRFVLNNINKNEFKTYAESIM | failed
6 | PKKIMLVAGHGYNDPGAVGNGTNERDFIRKYITPNIAKYLRHAGHEVALYGGSSQSQDMYQDTAYGVNVGNKKDYGLYWVKSQGYDIVLEIHLDAAGESASGGHVIISSQFNADTIDKSIQDVIKNNLGQIRGVTPRNDLLNVNVSAEININYRLSELGFITNKNDMDWIKKNYDLYSKLIAGAIHGK | failed
7 | PLKEQKVINTANIKTNSKLDLAEYENGLINIATQQFDTESHVLQLNQYIPEKLIDELVAKVEAPVLTNIIEQDYFGKQNSNELSLSGVMIGLAMSSSVSNEEAMSKGTEVAKQLIEAINKNDKYNKSPITFAIFKQESTSSLKNGTYIASATVQKNDTNLGNWSTIDEKSYSYPSDEFTQAHGEDNTKINNFAKEIKGFSNGDFIPVNAKVSYKKDQMDTLNMNIVIKYNGKTELMALTQLAAQGMLDKLPKDAKVQLQIKSESKIEAVIIKEKNSDKPFVSFL | not failed
8 | PRLLCTATKQKNSGQNLEEDMGQSEQKADPPATEKTLLEEKVKLEEQLKETVEKYKRALADTENLRQRSQKLVEEAKLYGIQAFCKDLLEVADVLEKATQCVPKEEIKDDNPHLKNLYEGLVMTEVQIQKVFTKHGLLKLNPVGAKFDPYEHEALFHTPVEGKEPGTVALVSKVGYKLHGRTLRPALVGVVKEA | failed
9 | PSARDILQQGLDRLGSPEDLASRIDSTLLSPRATEEDVRNLVREASDYGFRCAVLTPVYTVKISGLAEKLGVKLCSVIGFPLGQAPLEVKLVEAQTVLEAGATELDVVPHLSLGPEAVYREVSGIVKLAKSYGAVVKVILEAPLWDDKTLSLLVDSSRRAGADIVKTSTGVYTKGGDPVTVFRLASLAKPLGMGVKASGGIRSGIDAVLAVGAGADIIGTSSAVKVLESFKSLV | not failed
10 | PSEAPERVMVPIANPKTVESLLDLAFIVRGQSSEPLYPLTVAQGTNGDAESEVAKAEKVLAHAVTYAAGASVPIQMLTRLDPNIASGIIRAIEETRITTLVIGWNGKRSTPQLIFGGILDQLLERTEEMVLVSK | failed
11 | PSEPVTDEYLTSVTIGERKPLNDRIQLAEYDLRWPSMFSVAADKIRSALSEKALLVEHVGSTSVPGLAAKLIIDMLLGVTDSADEKSYVLPLEQQGFVLQAREPGWYEHRFFRLKSGDMEWHLHVFSAECEEIDRMLAFRNWLRVHDDDRQRYENVKRTLAARTWKHMQNYADAKSDIVREILGRA | failed
12 | PTNIHKIHEVQKKLQEEVSIVLIDIADIIVNPKKENGYSRDLYTLNSLIDSSISETYDNINNTLLSDTRFFLEHMDIIKSQRDILENLYSYVSQLNSTPPQAHILSAFIHKIGYTEFEAETGNLLLEELKRLMISMKNQPLPVDRTEFENRAILFLCLTELKQFLVNRKHAQML | not failed
13 | PVAGPYITFTDAVNETTIMLKWMYIPASNNNTPIHGFYIYYRPTDSDNDSDYKKDMVEGDRYWHSISHLQPETSYDIKMQCFNEGGESEFSNVMICETKAR | not failed
14 | PVRLEGDQVAAAEALVAAVAADSYSTTLLKGVTGSGKTEVYLEAVAECLRRGRQALVLLPEIALTSEFLARVEARFGARPAEWHSGVTATERRRLWRMVSEGQAQFVAGARSALFLPFRDLGLVVVDEEHDTSYKQEEGALYNARDMAVLRASICGCPAVLASATP | failed
15 | QAAPSQVVVIRQERAGQTSVSLLWQEPEQPNGIILEYEIKYYEKDKEMQSYSTLKAVTTRATVSGLKPGTRYVFQVRARTSAGCGRFSQAMEVETGKP | not failed
16 | QDHYKVLGLSKLRWQATSDEIRFCYRQKVLKHHPDKKKHRGIVMEKEEYFTCITKAYEQVGMSDVK | failed
17 | QERLKITALPLYFEGFLLIKRSGYREYEHYWTELRGTTLFFYTDKKSIIYVDKLDIVDLTCLTEQNSTEKNCAKFTLVLPKEEVQLKTENTESGEEWRGFILTVTELSVPQNVSLLPGQVIKLHEVLEREKKRRIE | not failed
18 | QGLLRAIPSITEDMPRLPTIPGNPPSALINHQGCPFRDRCDYRLARCQAETPKFMPLNGRQSIACHVKAQSSISLIHQSA | failed
19 | QHTLKQFAADSALTTTTPLCSEVPLFDINALGDWTYLGTSLPAKFAKLFASILHCIDDEYFLITPVEKVRVQVEDAPLLIVDFERAQPHSLLNVSTSIGTLHHNVDIKQMKLTDDSVYLPLERGLWGKLGRACYYNFVNEFNLSDLNEQ | not failed

Row | Sequence | protein production
20 | QIRMIAAIAHMGGHDLKDDRVKAMVYACLTGNAAKDILKDIGIVVGRKLTENAIKSISGKTITKINQAVGFRLLTKFGEKG | failed
21 | QKGWFPASHVKLLGPSSERATPAFHPVCQVIAMYDYAANNEDELSFSKGQLINVMNKDDPDWWQGEINGVTGLFPSNYVKMTTDS | not failed
22 | QKSVRVGISFDISEQKEGEALFEIISQNVTDVIWVYDLKLNRFRYISPSVEAMRGLPKEEAEAMSLEETLTPSSYQRAMQILEGERLRLSNPSHREIKIFSEFFDQYTHDGEVIETEVTARVVQDEG | failed
23 | QKVEFRKRMEKEVSDFIQDSGQIKKKFQPMNKIERSILHDVVEVAGLTSFSFGEDDDCRYVMIFKKEFAPSDEELDSYRRG | not failed
24 | QLTVRRVAEHDLAALSEKAGGPVSIGTRDRLQVVYVDTIHDRGNNGAKPDIGSSRPLLHTAMGRALLYTFDAAERELLMPLLLEQEPQQGDAARAALEEAFAQIARTGFCTSYGSWRPELAGLAAPLRYRAGDLPFAINLTLPIDAVKDGRAEQEFGPYLARLAQSIDRRLGVDV | failed
25 | QNHFHVFVGDLSPQITTEDIKAAFAPFGRISDARVVKDMATGKSKGYGFVSFFNKWDAENAIQQMGGQWLGGRQIRTNWATRKPPAPKSTYES | failed
26 | QSNQAWFGNDAFFNAVCFNEAVAKQLNLPKPTSWEDLTKPVYKGHIVMPNPASSGTGYMQVSAWLQNMGEDQAWNYMRDLDKNIAHYTHSGSKPCVQAGMGEVAIGISMASRGAKLKTQGAPLAVITPKGIGWESEAVGLVKESDAAKRVVDWSISKAANELYVEMYPVVGH | failed
27 | QSYSGGIRLDTLFIDEGFGSLDPESLDLAIQTLVDLQQTGRMIGVISHVSELKEQMALRIDVEPSRFGSTVSVKSQMLISK | failed
28 | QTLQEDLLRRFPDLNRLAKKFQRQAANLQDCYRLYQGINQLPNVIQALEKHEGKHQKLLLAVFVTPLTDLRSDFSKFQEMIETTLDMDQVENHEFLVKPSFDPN | failed
29 | QVSDEDVMLMIRQGAKKGVFESVEYEMISRIFRMSDKRASALMTPRNEIEWLDLERPDEELVARIKASGRSRFPVAKGSLDELQGVVRSLDLVNFSLSSKGSIREAIRASMKPPLFVPESVPAFHVLELFKKNRAHMALVIDEHGSVQGAITLTDVLESIVGDVPADDMEGD | failed
30 | QYRLRQLPEVSGAMVVMDPLTGRVLAMVGGFSFDQSQFNRATQAYRQPGSSFKPLVYSAAMDNGYTPSTVVIDAPIEIDQGQGVGVWRPENYSTGKYYGPTTLRNALQRSLNTVTVRLAQDIGMPLIGEYAKRFGVYDDLPNYLSYALGAGETTVMRMVTAYSMFANGGRRVKATLIDRIQDRYGHTIFKHDQRECRGCEAPNGWKNQPEPQLVDRREQVLDPMTAYQITSMMEGVVQAGTATVLREVGKPIAGKTGTTNDEKDAWFIGFSPDLVCGVYIGYDKPRNLGRGATGGHLAAPIAKDFFKLALAEKPAVPF | failed
31 | RAAAALAAGALALSLTACGGDEDNGGGDGGDEGGGAKQPASSVTLPKLDGESLEVAAVWTGTEQENFKKVLAEFEKRTGAKVTFVPAQDPIINFLGSKIAGGAPPDVAMLPQPGAIKQAVDKGWAKPLGAEATKELGENYSQGWQDIGKVGGKQYGVYYKAANKSLIWYNAQVFENAGAAEPKTWDELLNAAQMVYDSGVTPFSVGGADGWTLTDWFENVYLSQAGPEKYDQLAKHEIKWTDPSVKDALTTLAEIWGKKDFVAGGASGALQTEFPASVTQTFTGGDQPKAGMVYEGDFVQVNIGETKAKVGTDAKVFPFPAVGDTAPVVSGGDAAVVFKDSKAAQALATWLASPDAAGIQAKLGGFLSPNKSIDSSVYPNEVQKKIAEALVAAGDDFRFDMSDQAPQAFGGTPGKGEWKTLQDFLKNPKDVAGAQAKLEADAAAAYG | failed
32 | RAKAFIDAANQYSINELYLISHALLETGNGTSALANGLTYNGKTVYNMYGIGAYDSNPNYYGAKYAYEQGWFTPEAAIIGGAKFIGSSYIHNTAYNQDTLYKMRWSATATHQYATDIGWAYKQVNRMYSLYSLLDG | not failed
33 | RATPSGMLRINASVQAGRAVAPLVLAFLRRYPEMRVDLVTEGRLLDIVAEGFDMGIRPADLVPRDMIALPLGLPVRHAVVASPDWLVRHPEPRSPADLDPDACLRVRLPNGALLRWPFQKDGVPLPFEASGRLTVDEAAIAR | failed
34 | RDEVAGILRLGLSQSFGTMHIIPAIDKLRNQYPDLQVEVRLFDHQADMLKDGLDLWVTNFEDLPEGYVAQRLADSNFVLAASPDYLIDKKVPHHPLDLVEHNCLTYQ | failed
35 | REVPRCLADLGNGSVHGYRAGRVLSDSGPTGRVGEELMRSFASFFVRTASVPVAELPARPEGWPRDGDTQGFLDWLVHFTERRVHRPNRDRFGALFDAVGVPEDAMARFAAGHRCRAVRPFRLLHTDVHRANVVVRGRRLAVIDWELAILGDPLHDLATHLVRMAYGKEEQGRMVDLWAEAMADAGFTDLTAGLHEDLPVYVAFEYAQSVFPDVMRAAIDLPQ | failed
36 | RFHNDGEALLAAFLAGDLAGIGAMTPEPAALEPARRLRRFYVRPDMRRRGVATALASALIHEGFDSVRLLTVNARAADAAAPFWEAQGFEPDTIGPWTH | failed
37 | RHDFSDQTAMLELFSQLFGPYPFDQYSVVVTEDDLEIPLEAQGLSIFGANHAGGTKQWERLIAHELAHQWFGNSLGLAQWDDIWLNEGFACYAE | failed
38 | RHQVESSPLFRALALRCNQTMVTLRSANMFHAYGFLAKVFEILAKHKISVDLITTSEISVSLTLDQTDTSGGAPQLPQAAREELEELCKVEVEHDLCLVALIGNKMSERKGYAKQVFGTLEDLNLRMICYGASPHNLCFLVNESVAKQAIQKLHTELFEQ | not failed
